Results from PMC9045149.

How the values were obtained:
[1] = biological target: CD16/50L CBD Y202A fused to SmBit and to LgBit; test: split complementary luciferase assay (SmBit/LgBit) in C. difficile cells; conditions: 4% (wt/vol) xylose for 2 h; furimazine substrate incubated for 5 min; parent: est. 6.0; read off a plot
PG-PS complex = test: co-precipitation (pull-down) with PG-PS complex, SDS-PAGE band quantification; conditions: parent: est. 1.0; read off a plot
[2] = biological target: CD16/50L CBD C234A fused to SmBit and to LgBit; test: split complementary luciferase assay (SmBit/LgBit) in C. difficile cells; conditions: 4% (wt/vol) xylose for 2 h; furimazine substrate incubated for 5 min; parent: est. 6.0; read off a plot
[3] = biological target: CD16/50L CBD F248A fused to SmBit and to LgBit; test: as above; conditions: 4% (wt/vol) xylose for 2 h; furimazine substrate incubated for 5 min; parent: est. 6.0; read off a plot
[4] = biological target: CD16/50L CBD (Y202A, W257A) fused to SmBit and to LgBit; test: as above; conditions: 4% (wt/vol) xylose for 2 h; furimazine substrate incubated for 5 min; parent: est. 6.0; read off a plot
[5] = biological target: CD16/50L CBD W257A fused to SmBit and to LgBit; test: as above; conditions: 4% (wt/vol) xylose for 2 h; furimazine substrate incubated for 5 min; parent: est. 6.0; read off a plot
[6] = biological target: CD16/50L CBD E239A fused to SmBit and to LgBit; test: as above; conditions: 4% (wt/vol) xylose for 2 h; furimazine substrate incubated for 5 min; parent: est. 6.0; read off a plot
[7] = biological target: CD16/50L CBD Q250A fused to SmBit and to LgBit; test: as above; conditions: 4% (wt/vol) xylose for 2 h; furimazine substrate incubated for 5 min; parent: est. 6.0; read off a plot
[8] = biological target: 6xHis-tagged cell-wall binding domain of endolysin CD16/50L, wild type (Clostridioides difficile phage ϕHN50 (identical in ϕHN16-1)); test: SEC; Superdex 75 10/300 GL, 50 mM Tris-HCl (pH 8.0), 500 mM NaCl, 0.5 mL/min; approximately 2.5 mg/mL of each purified 6xHis-CBD variant injected separately; size from calibration with standard proteins
[9] = biological target: CD16/50L CBD M260A fused to SmBit and to LgBit; test: split complementary luciferase assay (SmBit/LgBit) in C. difficile cells; conditions: 4% (wt/vol) xylose for 2 h; furimazine substrate incubated for 5 min; parent: est. 6.0; read off a plot
[10] = biological target: CD16/50L CBD wild type fused to SmBit and to LgBit (CBD-SmBit/LgBit, plasmid pWP004) (Clostridioides difficile phage ϕHN50 (identical in ϕHN16-1)); test: split reporter (BiFC, NanoBiT); BitLuc^opt split luciferase in live C. difficile R20291; CBD-SmBit and CBD-LgBit co-expressed, induced with 4% (wt/vol) xylose for 2 h; Nano-Glo (furimazine) substrate, luminescence read

With “CD16/50L CBD wild type fused to SmBit and to LgBit (CBD-SmBit/LgBit, plasmid pWP004) Y202A” as the substance, how does the response [1] read?
Its response is 5.9 log RLU.

For “6xHis-tagged cell-wall binding domain of endolysin CD16/50L, wild type W257A”, which ratio to parent (PG-PS complex) is on record?
Its ratio to parent is 0.35.

Which response [2] does the source give for “CD16/50L CBD wild type fused to SmBit and to LgBit (CBD-SmBit/LgBit, plasmid pWP004) C234A” here?
The response was 6 log RLU.

“6xHis-tagged cell-wall binding domain of endolysin CD16/50L, wild type Y202A; W257A” was tested. Which ratio to parent (PG-PS complex) did it give?
Its ratio to parent is 0.47.

How did the response [3] turn out when “CD16/50L CBD wild type fused to SmBit and to LgBit (CBD-SmBit/LgBit, plasmid pWP004) F248A” was run?
The response was 6 log RLU.

“CD16/50L CBD wild type fused to SmBit and to LgBit (CBD-SmBit/LgBit, plasmid pWP004) Y202A; W257A” was tested. Which response [4] did it give?
Its response is 3.5 log RLU.

For “CD16/50L CBD wild type fused to SmBit and to LgBit (CBD-SmBit/LgBit, plasmid pWP004) W257A”, which response [5] is on record?
Its response is 4.9 log RLU.

For “CD16/50L CBD wild type fused to SmBit and to LgBit (CBD-SmBit/LgBit, plasmid pWP004) E239A”, which response [6] is on record?
Its response is 6.1 log RLU.

Which response [7] does the source give for “CD16/50L CBD wild type fused to SmBit and to LgBit (CBD-SmBit/LgBit, plasmid pWP004) Q250A” here?
The response was 6 log RLU.

Which stoichiometry N [8] does the source give for “6xHis-tagged cell-wall binding domain of endolysin CD16/50L, wild type (domain or fragment)” here?
The stoichiometry N was 2.

How did the response [9] turn out when “CD16/50L CBD wild type fused to SmBit and to LgBit (CBD-SmBit/LgBit, plasmid pWP004) M260A” was run?
The response was 6 log RLU.

For “CD16/50L CBD wild type fused to SmBit and to LgBit (CBD-SmBit/LgBit, plasmid pWP004) (domain or fragment)”, which fold increase of the luciferase signal over the single-fragment controls [10] is on record?
Its fold increase of the luciferase signal over the single-fragment controls is under 300 fold.
